Results reported in patent publication US11406723B2, “Radiotherapeutic and companion imaging agents to target MC1R” (H. LEE MOFFITT CANCER CENTER AND RESEARCH INSTITUTE, INC., priority 2015, dated 2022).
Where “and” joins values, the source holds several entries; their conditions need not be identical. Equal entries are not always repeated. Where a SMILES comes first, the peptide text is derived from it. Side-chain parts run from the residue outwards. [ ]: non-standard residue; d: D form. The star is where a group is joined. 1‑Phenylbutyric acid = 1-phenylbutyric acid N-terminal cap; DOTA = O=C(O)CN1CCN(CC(=O)O)CCN(CC(=O)*)CCN(CC(=O)O)CC1; Butanoyl(4-Ph) = O=C(CCCc1ccccc1)*; Ahx = NCCCCCC(=O)O

Assays:
[1] = tested on: A375/MC1R tumors; assay: Efficacy in SCID mice bearing A375/MC1R tumors; type: in vivo; conditions: after injection; control groups
Method: Mice were observed daily for health and twice per week weighed and tumor volumes measured by caliper. When the tumors reach 2000 mm^3 (experimental endpoint), animals were euthanized. Euthanizations prior to 2000 mm^3 were due to clinical endpoints, i.e. predominantly due to tumor ulceration.
1.9-3.3 μCi of MC1RL-DOTA-^225Ac, 1.8-2.7 μCi of scrambled peptide-DOTA-^225Ac, an excess of the cold agent (MC1RL-DOTA-^139La) and saline were injected to the SCID mice bearing A375/MC1R tumors injection (n=10 per group, volume of the tumors: 57-266 mm3). Mice were observed daily for health and twice per week weighed and tumor volumes measured by caliper. When the tumors reach 2000 mm^3 (experimental endpoint), animals were euthanized. Euthanizations prior to 2000 mm^3 were due to clinical endpoints, i.e. predominantly due to tumor ulceration.
These 2 mice are currently tumor free 150 days post injection. The other 7 treated mice were euthanized at an average of 86 days due to tumor ulceration without progression. While the median time-to-endpoint (tumor >2000 mm^3) of control mice treated with saline, MC1RL-DOTA-^139La (cold surrogate) and scrambled peptide-DOTA-^225Ac were 22, 24 and 32 days respectively after injection.

[2] = target: T1, MC1R (Hek293/MC1R cells) (Homo sapiens, UniProt Q01726); assay: Time-resolved fluorescence (TRF) competition binding assay; conditions: competitive binding, read-out: binding affinity to MC1R (Ki)
T1 construct: expressed in transfected cells; host or cells: Hek293
Method: FIG. 2 is a graph from representative competitive binding assays of the ^139La- and ^69Ga-DOTA-MC1RL peptides.
(§1) Time-resolved fluorescence (TRF) competition binding assays were performed to determine binding affinities of these DOTA conjugates (FIG. 2). The TRF method takes advantage of the long fluorescence lifetime of the lanthanide Europium and can detect less than one attomole in a multiwell plate sample. Hek293/MC1R cells (Hek293 cells engineered to over-express MC1R) were used for the binding assays. Saturation TRF binding assays were performed using versions of the compounds with chelated europium to determine specific and non-specific binding (FIG. 17-20).

[3] = MTD study of the radiotherapeutic agent; type: in vivo, mice
Text: FIGS. 6A, 6B and 6C are graphs from a MTD study of ^225Ac-DOTA-MC1RL radio-therapeutic agent.
(Table 3). […] Blood urea nitrogen (BUN) (FIG. 6B) and blood creatinine (FIG. 6C) levels, and pathology of a range of tissues including heart, lungs, brain, kidney and liver were all unremarkable.

[4] = target: T1, MC1R (Hek293/MC1R cells); assay: Saturation TRF binding assay with europium-chelated compounds; conditions: Eu chelate; 20x MC1RL-DOTA used for blocking; two repeats; read-out: Kd, specific saturation binding
Text: The binding sequence is 1-Phenylbutyric acid-His(D)Phe-Arg-Trp-Gly-Lys(Ahx-DOTA)-CONH2. Eu is chelated into the conjugated DOTA for lanthanide-based binding assays but ^225Ac, ^68Ga, or ^111In can also be chelated. […] 20×MC1Rl-DOTA was used for blocking. […] Data is the result of two repeats.
The binding sequence is 1-Phenylbutyric acid-His(D)Phe-Arg-Trp-Gly-Lys(DOTA)-CONH2. Eu is chelated into the conjugated DOTA for lanthanide-based binding assays but ^225AC, ^68Ga, or ^111In can also be chelated. […] 20×MC1Rl-DOTA was used for blocking. […] Data is the result of two repeats.
The binding sequence is 1-Phenylbutyric acid-His(D)Phe-Arg-Trp-Gly-Lys(D-di-Glu-DOTA)-CONH2. Eu is chelated into the conjugated DOTA for lanthanide-based binding assays but ^225Ac, ^68Ga, or ^111In can also be chelated. […] 20×MC1Rl-DOTA was used for blocking. […] Data is the result of two repeats.
as §1, with “Saturation TRF binding assays were performed using versions of the compounds with chelated europium to determine specific and non-specific binding (FIG. 17-20).” left out

[5] = in vivo fluorescence imaging and mathematical model; cited from earlier work
[6] = target: MC1R (Homo sapiens, UniProt Q01726); conditions: read-out: binding affinity (Ki); cited from earlier work
[7] = tested on: A375/MC1R and A375 xenograft tumors; assay: In vivo tumor targeting, bilateral A375/MC1R and A375 xenografts, fluorescence imaging; set-up: species or system nude mice; conditions: 4 h post-injection, i.v., P≤0.05, n=3
Method: FIG. 3 contains data from in vivo targeting of a MC1R specific probe. Left mice: Representative images of normalized fluorescence intensity maps overlaid on mice bearing xenograft tumors. […] A blocking experiment (right mouse) was performed by coinjection of 0.25 μg unlabeled NDP-α-MSH and 3 nmol/kg of the MC1RL-800 probe. […] Right mouse: Representative tomographic image of a mouse bearing a B16F10 xenograft tumor at 4 h after injection of 3 nmol/kg of the MC1RL-800 imaging probe using the FMT 2500 LX quantitative fluorescence tomography in vivo imaging system (PerkinElmer).
Previously, to investigate tumor targeting of the infrared conjugate of the ligand in vivo, bilateral subcutaneous xenograft tumors with A375/MC1R engineered cells in the right flank and A375 parental cells with relatively low MC1R expression in the left flank of nude mice and MC1RL-800 probe was injected intravenously and fluorescence accumulation was monitored over time. […] In vivo blocking studies were performed to determine that probe retention in the tumor was due to specific binding (FIG. 3, left mice).

T1 sequence (Q01726 whole entry): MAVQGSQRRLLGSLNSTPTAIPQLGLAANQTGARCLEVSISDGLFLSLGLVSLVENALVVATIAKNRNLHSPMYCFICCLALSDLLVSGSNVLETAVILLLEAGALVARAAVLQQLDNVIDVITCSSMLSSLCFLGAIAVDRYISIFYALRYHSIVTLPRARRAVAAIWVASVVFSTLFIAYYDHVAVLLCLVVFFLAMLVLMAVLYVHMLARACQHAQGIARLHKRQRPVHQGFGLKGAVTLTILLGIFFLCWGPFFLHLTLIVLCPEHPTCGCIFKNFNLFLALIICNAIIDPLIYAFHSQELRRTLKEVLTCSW
Chain of MC1R (Q01726 whole entry): as above

N=C(N)NCCC[C@H](NC(=O)[C@@H](Cc1ccccc1)NC(=O)[C@H](Cc1c[nH]cn1)NC(=O)CCCc1ccccc1)C(=O)N[C@@H](Cc1c[nH]c2ccccc12)C(=O)NCC(=O)N[C@@H](CCCCNC(=O)CCCCCNC(=O)CN1CCN(CC(=O)O)CCN(CC(=O)O)CCN(CC(=O)O)CC1)C(N)=O (139La complex, metal not drawn) [^139La-DOTA-MC1RL] ({Butanoyl(4-Ph)}-H[dF]RWGK([Ahx-DOTA])-NH2)
median time-to-endpoint (tumor >2000 mm^3) [1]: 24 days

N=C(N)NCCC[C@H](NC(=O)[C@@H](Cc1ccccc1)NC(=O)[C@H](Cc1c[nH]cn1)NC(=O)CCCc1ccccc1)C(=O)N[C@@H](Cc1c[nH]c2ccccc12)C(=O)NCC(=O)N[C@@H](CCCCNC(=O)CCCCCNC(=O)CN1CCN(CC(=O)O)CCN(CC(=O)O)CCN(CC(=O)O)CC1)C(N)=O [DOTA-MC1RL] ({Butanoyl(4-Ph)}-H[dF]RWGK([Ahx-DOTA])-NH2)
Ki [2]: 0.24 nM and 0.3 nM

N=C(N)NCCC[C@H](NC(=O)[C@@H](Cc1ccccc1)NC(=O)[C@H](Cc1c[nH]cn1)NC(=O)CCCc1ccccc1)C(=O)N[C@@H](Cc1c[nH]c2ccccc12)C(=O)NCC(=O)N[C@@H](CCCCNC(=O)CCCCCNC(=O)CN1CCN(CC(=O)O)CCN(CC(=O)O)CCN(CC(=O)O)CC1)C(N)=O [^225Ac-DOTA-MC1RL, metal not drawn] ({Butanoyl(4-Ph)}-H[dF]RWGK([Ahx-DOTA])-NH2)
overall tolerability ([3]; MTD study): tolerated extremely well | behavior in MTD study ([3]; range of radioactivities): no signs of altered behavior | blood creatinine level ([3]; range of radioactivities): unremarkable | blood urea nitrogen (BUN) level ([3]; range of radioactivities): unremarkable | pathology of tissues including heart, lungs, brain, kidney and liver ([3]; range of radioactivities): unremarkable | weight gain in MTD study ([3]; range of radioactivities, weight gain decreased with increased activity): All mice gained weight

N=C(N)NCCC[C@H](NC(=O)[C@@H](Cc1ccccc1)NC(=O)[C@H](Cc1c[nH]cn1)NC(=O)CCCc1ccccc1)C(=O)N[C@@H](Cc1c[nH]c2ccccc12)C(=O)NCC(=O)N[C@@H](CCCCNC(=O)CCCCCNC(=O)CN1CCN(CC(=O)O)CCN(CC(=O)O)CCN(CC(=O)O)CC1)C(N)=O [1-Phenylbutyric acid-His(D)Phe-Arg-Trp-Gly-Lys(Ahx-DOTA)-CONH2] ({Butanoyl(4-Ph)}-H[dF]RWGK([Ahx-DOTA])-NH2)
Kd [4]: 0.88 nM

MC1RL-800: near-infrared fluorescent (NIRF) dye conjugated analog of MC1RL, imaging probe ({1‑Phenylbutyric acid}-H[dF]RWGK-NH2; also: NIR dye 800 conjugate, site not given here)
clearance [5]: rapid renal clearance | crossing of the blood brain barrier (BBB) [5]: does not cross the BBB | Ki [6]: 0.4 ± 0.1 nM | normalized fluorescence signal of low-MC1R A375 tumors compared to A375/MC1R tumors [7]: significantly lower normalized fluorescence signal
